Results: a protein production outcome set (Wang et al. 2014)

Assay: label from the status in PepcDB records

MFTDLDLALFFIIIFIVLFIGYIAYFWRKPDDIHKHGEWSLGGRRFGTVVVWFLLGGDLYTAYTLIAVPGAAATPGIGGGAFAMFAITYGIMIYPIVYGTMPRLYNVSKKRGYITAADFVKDRFSSRFLAMLIALTGVLAELPYIALQITGIKYVLASLSLPISISLIIAFLLVAGFTFVSGLRGPALTAIIKDAIIWAAVLVIIVYIPLKLHGFGNIFSKAATISPNLLDISPTIDIGYVSLALGSALALFLYPHAVTGTLGSKDVKTIKRNAALLPLYNVLLMFVAIIGIMSVVYFNAYPKVSSEALPLLVLHVFPSTFTAFAFAAIVVGSIVPASIMALASANLLTRNLYLEYINPNATEKAQTNLSRVLVVVVIVAALAFSLVPAASGEIVYLQTIGGAIIMQTLPSVYLALFTRKLNKYPVGLGWLAGLATTMILLVDLHFKTSLYKGFFFMYVGIIALLINLAVVGLGMLIMAAMHRIKNEGIIEDHEFLDE
protein production: failed

MFTTTSFPDFDSAAQATLTYLHQRMGLSLWMITRTEVDNWIVLQAQDNGYGVKRGDVFHWPDSFCSRMVRGEGPHIAPQSNLVEAYRNAPIAQQVDIGAYVGVPITYGNGSLFGTLCAIDPEIQPDSLVDELPLVELIAQLLSTILDFFLKAEIASRREEYQQLLKERDGTTGFYSLSGWEKLLASEEIRCQKFGFPVSVIIVEVEAAEPKGEEPINDLILQRAAKIIKTVCRQDDFCARIGEREFAILCIECHISQADFIRERLALGFEQGKITADIGIGERSPEKGLLDAMETAKSAAHEQKKFRVKTEG
protein production: failed

MFVAFNFNKIESITTEKEFKIILNDQIALGKIPDFSKIKITIKVNKDDLKYLDLNKIILFIEASSIKIPGSYKLPIKIKNLNSIHIAEYKLSKTNVLLNLDNKVSKLVKIEPKFKLEHHHHHH
protein production: failed

MFVAREHELQVLEKLFTSDSFEMVVLYGRRRVGKTALIDEFVKDKRVLYFTAIQQSAKMNLEDFSRAALSFFGMPDSTPSFGGWSDALSFVAERAAQTDERMVFVFDEFPYAAAAEPALPSMLQIAIDHGFLATKVTMILSGSNEGFMENDVLGRKSPLYGRRTAQIRLLPFDYADAAKFLTNTSPQELVQYYATFGGTPYYLARIQEADGFESNVLRLMFDNLGVLREEPMMLLRQELREPASYYSILQSIAGGNSSPKLIAEHAGVGSDSIGAYLKTLVDLRLIERKVPFGEDPSKSRKGMYVVSDPFFAYWFRFVGRNMSILDGNISEEVTSRLAFGPAFDTYVGQQFETICLQWLIRNNAMGNLPFVATQFGKWWGNDPIAHEQTDIDVIAADSLDKTILFGECKWRNSFNETEAIEKLHQRAGLVRGYQAGNAWLMLFTKNPVSESTRTRYMDDERMVFVSAEELYTALEHHHHHH
protein production: failed

MFVELNNLLNTTPDRAEQGKLTLLCDAKTDGSFLVHHFLSFYLKANCKVCFVALIQSFSHYSIVGQKLGVSLTMARERGQLVFLEGLKSAVDVVFQAQKEPHPLQFLREANAGNLKPLFEFVREALKPVDSGEARWTYPVLLVDDLSVLLSLGMGAVAVLDFIHYCRATVCWELKGNMVVLVHDSGDAEDEENDILLNGLSHQSHLILRAEGLATGFCRDVHGQLRILWRRPSQPAVHRDQSFTYQYKIQDKSVSFFCQRNVSCCSVT
protein production: not failed

MFVGREQELASLEEFYAKDGIGMTVIYGRRRIGKSTLITEFVKDKKTVFYTATKIGKARNLELFSKQVLDLFMPGIENISFNSIEAVFDFIDKNIANDKIVLVIDELPYWAEKDDSLLSILQKYIDTIWNDKNLKIILCGSALSFMENKVLSEKSPLFGRRDSQIKLESFNYLDSAKFVPNYSNEDKAICYGITGGVAKYLSMIDPKKNIDENIIRLFFRTDGYLYDETRNLLTQEFSDISLVNNIVEQIASGVNTLNTISGKINEKEPTVLYSLEKLISVGLIEKKKCITEEKNKKKTQYVLKDYMFKFWYEFIPKATSVIEMGQGALYYQKAVKPFLHSFMGSVFEEMCRYYTLNQGITGAYGCFVTSVGTWWGVENITDKNGYIRAQSADIDIVALSDIDKKAVIGECKFKNEKIDKGIYETLVRRGTLISNKYKISKYIFFSLSGYTDWFNSLSDEDVLLLTLDSLYR
protein production: failed

MFVIGIPTLNEADNISRLVKQIDEYAVNLGKEIIIINSDSKSTDGTPQIFLETKTYNTKVSIVSEAKGKGYNVRNIFEYAINHVPNFSGLILIDGDVVSMKKMWLEKMFIAIESGNDLIIPNYARKSFEGNATNHFIYPMLVKIFKRDMPYQCISGDFGFSRGLIKDLTLKCNWHKYTLGYGIDIFLTLTAILKSYKIKEIDLQSKIHKKSFEKIEKIFLEVSQSFFETINDNSLNQDKLRLNINFESHSRQFIKSSDILSSNDIENLKLRALFLLQEEKQYLHGLSEVEWDGILSNTINNIYRYSSEEHSLYLLPLYLLRVYNYLKYN
protein production: failed

MFVSHGAIVKSAPKHWNGSKCPIRMQVRVPDPDRRSLLRAGAHIILGGLLATVIPGTSPSIAKIREKPTDKGEEAPKIDDEKELDKYVSGLKYEEELYENPDPAEKEVYRTPRVEREPEYKKKEDEILEKESKVLKEEAREAARESEVLRQEFEKR
protein production: not failed

MFVVANIVVGIAKILDAILNLYFWVIIAAAVLSWVNPDPYNPVVRVVRNLTEPVFYRVRKWLPFTYVGGLDLSPLVVLLGIQIINSVLVQSLYQLAVRLY
protein production: failed

MFWDSSRLIKLIGFFCLLLAQPLHATILSSALLNEAQQLAEIEPAQAKQAAKNYLSQRELTERKESGSPSAMSREETDRSIRTPASTIEAHKIIAQADYTMGNVRSAIDNLNEAEKLAKEYQLPYMTLDVQLMRNQMIWMYDHNYSAAEDALNQIEKQLDEADSVLQRTDSVRYRLVMQRALLAAHRGDNVGAERLYAQAKSMLEDSRSDLALIDYYTSVGEFYLNSKKYNLALSELLYGYWQSIESDSGTRLAKVNRLLARLFQERRVYDKAIEYLSQAADFYDSYPSSPILADVLEQMGDIYFYQGKFNLALVHYFNVLDHESTSRNINRTIKIRLSLAATYLQLYNYALAEQYLERATELLEYADIPQLEAKAALLKSGLAYHQNDSKKVIENAKKALELVEKAPENKNFIKQQSYRLLGLGYEQAGEYQLSLQAYKKYTSLVRLEQKQLNQISEDAFRQQKEFAEQTIHYVGQSERLEQVEMEHRKFQKISFALFITVLVMFLFIMRRGVIMQRQAGEIEKLRNDLFTHSRSRLRNLRMLNVKLSRSLKKSRDTFEQWQMGELIHEPLNDRLRFVMIDLPFLRSMYVQNGYKAGLELERAFGEYLAERIEKPARLYHFSDANLLYIEPNADRDASAEVMFEKFQAWVDEFATQHNVNRIIRMGISDYPFLPRAYTAINDEELLDLLLLATHIAREVSLKDKQSHWVFLKAIDNAPAASFATGNIRTACQHAINQGLIKIHSSYKNEDDIKKILKNG
protein production: failed

MGACMKPIGSDGKPIPTPPSLLSFWEVVGVYGRLGLWLGALFIGAVGIFILMDQPPFVQMDWSGLVQQVAAVVALIAIVIPALQVFFALTNRASGSLRPGRYGRLFERRFARFTPQQIEDILQDARAILATMSDSPKRRAWARWVEWLEQRSNLPLAERSGLKIGVYHPRRSKLWIDGAGVALVGALGSWLIWDQRSWMGWAFLGVLGSLFTWGLLATLTERLELSDDSLSYYAFRRQQWSVPRQHVALREAGSSEYQIYDVRTGRLLGEVKGETFGADIVEALADLFPPWLGDEVG
protein production: failed

MGAFFMSVVSAFAGAAEACRPTGALQNVEVARVVDGDTVRLRDGRSVRLIGINAPELAHNGRTTEPFAEAAKQRLQALVSASDGRLALQPGRQARDHYGRTLAHLFDASGANLEARLLGEGLGYLVAVAPNTELTACQQAAERAARSANLGVWKRSPVLSLDRLAQSGFAVVRGRVLEVERNRGGIWLEMDGPLVLRIEPKVLKAFDAKRVMQMAGRSLEVRGWVVDRSRRGAVPAGKARWQMSVTDPAMLEWLPLEHHHHHH
protein production: failed

MGAIEDIYEDLETDVPEEEFREAVEEKVEQMGGLADEETAAMLLAHELNENEVNAIADIEPGMDEVKFLAKVMAIGDLKTFERDDEDEDGRVINVEAADESGSLRLAFWDGQAVDIDEGKLEVGDVLRVKGRPKDGYNGLEVSVDKAEPDEDATIDVEPGAGSSIDALTMGQSDVTLRGLVLDTDSIRTFDRDDGSEGRVSNLTLGDETGRIRVTLWDDRADRADELDAGAAVEIIDGYVRERDGSLELHVGDQGAVDEVEDDVAFEPDADPIAEVELEETADIAGVVRSADPKRTFDRDDGSEGQVRNVRIQDATGDIRVALWGDKADKDIAPGDEVLAADVEIQDGWQDDKEASASWNSTIVVLDDGADLATGGAGGGASAETTDAEHAGLSSFGDEGDDTDADSSGNEAAAVSAGTGDTSPDGGAQSAGQQVEFTGTVVQTGDPVVLDDGEQTMSVETGERVQLGQEITVRGELRDDRLHAEDVFLEHHHHHH
protein production: failed

MGAPPPANEDDRLAALHSYNILDTAPEPLYDDITAAAAQLCRTPMALISLIDQDRQWFKSRVGMQPAETPRDLAFCAHAILQPDQMMEVGDTFVDPRFARNALVTGGPQIRFYAGAPLLTSDGVALGTLCVLDRAPRTLSDAERTALQALARQVVTTIELRQAARLLEGDALRDPLTDLWNREGLEHMLEDAAPVAKLHGLAFVLIEIDGFKRLKLQFGSDAADATLVQAARCIETEPQEPGGVARIGAAHFCMVLPGADSAQALASVQRLQTTIAAACWPADTISITAGLVCVAPGEPLDSHVLMARARHALLGAARAGRNCVQRFDGWQTDR
protein production: failed

MGAVGRGRRMSERHLRRSTHKVGDITLGAVHRLNCHCGAVQIDLDLPHGLVDPRRCDCSMCRRRGAIVASVPLQGLHVRQGEDVLRLYQFNTHAAAHYFCGVCGIYTHHRRRSNPNEYGYNVGCLEGVNPYALNITVPVEDGIHHPADRVAPQLEHHHHHH
protein production: failed

MGAVVVEPGSSSMVLGPEQVLDRASMHLANGLLGNPDSAAGLEVLLGGLKLRFVSGSAVAVTGAEGMVTLDGTELPLNKAVRVPPGAVLELGPAMFGIRYYLAVQGGISAQGEAAQGEAIRAGAALTFGRPNNHGSPEVNHPARRALDPERPVVARVSRGPQAQNDDAGTWLRLTSEPWILSPESDRAGARLVGRPLDVTSAPIPQAQPLVSGSVLLPSSGLPVIALAGHPDTSQSPVIAVVRDEDLDVLGQARPGQMVHLLG
protein production: failed

MGAWRFWWDSTRRFYKNWGSYVALIFSTNLVISYLAIPFFNWVLEMLLKWQRVSYVSYTNIGSIIIHQPLAALGMVAILLAIIILVYWQFAFLLLGIMNIFRGRPQTVRAVLRSTVTSLTGTSPSTFLFFIGYFIVILPFGSFIFTTPLLNKAKIPAFIVSYLMENPWMTLGLGCFYLLAGYLGIRLISLLPLMIVDRLPWKTAVTRSWQQTRHHLWRYLWTMIVTLFMIFLIVTTIYTLIYVAQLQFDKTSFAMAAATVNLFIMEAITEIIICYTTAIFMMLIIVCYRQDFTLLRQQPQYFNEAPRLRKLTRASVAIGLLLATSLLVAVNLVYLNGLVITKPIMISHRGVDNGNGVQNTIPALIKTSKEHPDYVEMDIQVTKDHQFVVMHDPTLKALAGVKKKPSQLTLKQLEKITVRENGYQAKIPSFDAYLKAAHKHHQKLLVEIKTSSAYTAADTKRFIDRYGATLLAHHDQVHTLSFKVMRDLKRLDQKQFVSYILPYNLTFPHTVANGYTMEVTTLNDQFVDKADRNHKTVYAWDIDNTDQMDQMMFMGVTGVVTDNLTEMQQEVKSNTDHPSYAKLLLTFMNELSLTSNE
protein production: failed

MGCAEEKKTDVRWATFNIRYDNPQDSLNNWQYRKDRVCQFIKDHELDIVGMQEVLHNQFQDLRAGLPEYDGIGVGRDDGKTAGEYAPLFYRKDKYEVLDSNTFWLAENPDSVGMMGWDAVCVRIATWAKFKDKATGKIFMAVNTHFDHVGEEARRQSALLIIRKIKEIVGERPAVVTGDFNVTDASDAYETITTNEFVMKDAYKTAARVTGVDYTFHDFARIPAEDCEKIDFIFVTPQVLVKSCEIPAEVPEALLSDHNPQLADLELEHHHHHH
protein production: failed

MGDALSLLQQADRLHRQLLRTGPAQAPCWEPPVDMIETESAVLIYVALPGVAAGDVAVRFDPDGISISGVRPLPALRNARIHGLEIPYGRFQRRIRLPLHALEPEAPTLADGCLTLTLKKLREAPLEHHHHHH
protein production: not failed
